The record followed here is patent publication US20140335510, “NANOPARTICLE SENSOR FOR NUCLEIC ACID-PROTEIN INTERACTION” (Agency for Science, Technology and Research, published 2014).

For this series, the target named is T1, FoxA1 (full-length) (UniProt P55317 P55317:1-472).
T1 sequence: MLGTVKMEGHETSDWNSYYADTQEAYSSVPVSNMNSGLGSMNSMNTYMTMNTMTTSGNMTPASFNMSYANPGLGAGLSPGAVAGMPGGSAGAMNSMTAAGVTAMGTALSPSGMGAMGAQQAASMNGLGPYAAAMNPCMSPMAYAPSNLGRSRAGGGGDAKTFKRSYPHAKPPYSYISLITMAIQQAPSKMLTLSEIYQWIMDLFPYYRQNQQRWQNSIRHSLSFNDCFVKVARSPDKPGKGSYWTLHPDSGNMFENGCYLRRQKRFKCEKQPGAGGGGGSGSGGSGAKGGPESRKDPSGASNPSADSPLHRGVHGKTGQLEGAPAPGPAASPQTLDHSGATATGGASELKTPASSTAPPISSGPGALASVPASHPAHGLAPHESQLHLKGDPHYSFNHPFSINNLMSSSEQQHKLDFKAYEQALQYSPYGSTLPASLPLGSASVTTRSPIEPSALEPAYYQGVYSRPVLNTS
Kind of series: negative control; no fluorescence change of ACP-430 or CCP-410 on adding FoxA1. As to conditions: tags: N-terminal His-MBP fusion, pHISMBP vector, E. coli BL21(DE3); label: 5'-thiol-AuNP on sense strand (sensor).

B1: mtR3 (dsDNA)
DNA 1: AAAGTATTCAGAATCCATG
DNA 2: CATGGATTCTGAATACTTT
Turning to B1, the binding result is recorded as “no binding”.
